One may read the Kd as the free concentration of one partner at which half of the binding sites on the other are occupied at equilibrium, for simple one-to-one binding.

This passage reports Kd results from article PMC8666670 (2021).

In this test the target is GlmU, glucosamine-1-phosphate N-acetyl transferase/N-acetyl-glucosamine-1-phosphate uridylyltransferase of E. … (E. coli, UniProt P0ACC7 1-456). The test is described as follows: SPR. For orientation: In SPR one partner is held on a chip, and binding of the other changes the refractive index at the surface.
GlmU, glucosamine-1-phosphate N-acetyl transferase/N-acetyl-glucosamine-1-phosphate uridylyltransferase of E. …, sequence (P0ACC7 whole entry): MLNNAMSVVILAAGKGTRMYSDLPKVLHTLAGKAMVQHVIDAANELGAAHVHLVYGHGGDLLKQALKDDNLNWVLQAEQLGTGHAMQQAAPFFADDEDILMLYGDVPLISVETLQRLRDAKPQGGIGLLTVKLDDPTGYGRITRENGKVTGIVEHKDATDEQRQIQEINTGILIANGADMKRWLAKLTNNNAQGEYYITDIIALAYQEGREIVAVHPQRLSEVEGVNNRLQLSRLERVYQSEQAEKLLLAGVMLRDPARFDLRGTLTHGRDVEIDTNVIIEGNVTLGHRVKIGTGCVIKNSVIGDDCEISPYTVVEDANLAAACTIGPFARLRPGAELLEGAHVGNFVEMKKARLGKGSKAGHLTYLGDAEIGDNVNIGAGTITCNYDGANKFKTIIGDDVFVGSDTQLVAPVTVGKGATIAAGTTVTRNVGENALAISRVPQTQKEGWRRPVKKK

B1: acetyl-acyl carrier protein (acetyl-ACP) (natural protein)
chain: MSTIEERVKKIIGEQLGVKQEEVTNNASFVEDLGADSLDTVELVMALEEEFDTEIPDEEAEKITTVQAAIDYINGHQA
modifications: prosthetic group with attached acetyl chain (acetyl thioester), made from apo-ACP and acetyl-CoA with [ACP]synthase
Molecule B1 had a Kd of 82.5 µM.
